Reference: patent US20060204957A1, “Mta1s, a steriod hormone receptor corepressor” (priority 2002, published 2006)

Tests used:
ER [1] = experiment: ERE promoter-reporter assay, estradiol-stimulated, MCF-7 cells; format: cell-based, human; conditions: transient expression in MCF-7 cells
Description: (§1) Transfection was performed using a Fugene-6 kit (Roche Biochemical, New Jersey) as per the manufacturer's instructions. Cells were transiently cotransfected with a reporter construct and (β-galactosidase, and assayed for luciferase activity as described.
Since MTA1 is a corepressor of ER (Mazumdar, et al., 2001, incorporated herein by reference), the ability of MTA1 cDNAs to repress the transactivating function of ER were investigated.

ERα = biological target: T1, ERα (Homo sapiens, UniProt P03372); experiment: Confocal localization of ERα in estradiol-stimulated MCF-7 cells; format: cell-based; conditions: estradiol stimulated MCF-7 cells expressing the construct
T1 construct: endogenous in cells; host or cells: MCF-7 cells transfected with T7-MTA1s or MTA1s-del
T1 sequence (P03372 whole entry): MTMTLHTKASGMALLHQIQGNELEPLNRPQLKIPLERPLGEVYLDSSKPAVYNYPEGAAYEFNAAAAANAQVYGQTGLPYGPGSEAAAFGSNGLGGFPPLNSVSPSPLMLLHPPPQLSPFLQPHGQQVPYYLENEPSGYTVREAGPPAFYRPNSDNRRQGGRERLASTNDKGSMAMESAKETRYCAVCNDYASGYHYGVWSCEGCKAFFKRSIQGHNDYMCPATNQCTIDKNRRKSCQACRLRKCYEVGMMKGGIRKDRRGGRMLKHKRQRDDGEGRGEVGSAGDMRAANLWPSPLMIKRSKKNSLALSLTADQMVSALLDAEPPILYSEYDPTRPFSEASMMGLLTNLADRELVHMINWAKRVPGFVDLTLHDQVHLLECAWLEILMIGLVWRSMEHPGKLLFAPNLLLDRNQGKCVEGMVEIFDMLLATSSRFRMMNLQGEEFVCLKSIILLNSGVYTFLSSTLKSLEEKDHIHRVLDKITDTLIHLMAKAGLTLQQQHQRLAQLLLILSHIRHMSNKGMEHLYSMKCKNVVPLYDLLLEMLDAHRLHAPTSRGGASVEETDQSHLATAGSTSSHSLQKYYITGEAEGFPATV
Description: The cellular localization of T7-MTA1s, and ER was determined using indirect immunofluorescence as described in Mazumdar et al., 2001, herein incorporated by reference. Cells were treated with or without anti-T7 mAb or ER Ab followed by 546-Alexa-labeled goat anti-mouse Ab or 488-Alexa.
Expression of MTA1s-del but not wild type MTA1s was accompanied by the presence of ERα in the nucleus in more than 90% of the cell expressing MTA1s-del. Together, these findings indicated a pivotal role of LRILL motif in the cytoplasmic sequestration of ERα.

breast cancer cells = experiment: Tumorigenesis (xenograft) assay in nude mice; format: in vivo; conditions: MTA1s expressing cells implanted subcutaneously, 21 days
Source text: (§2) FIGS. 11A-11E. MTA1s may stimulate aggressive phenotypes in breast cancer cells. FIG. 11A illustrates an example of MTA1s overexpression inhibiting PRE-driven but not RARE-driven transcription. FIG. […] illustrates the Growth-rate of ZR/pcDNA or ZR/MTA1s cells in monolayer culture in the presence of E2 alone or with ICI 182780 (10^−9 M for 4 days). FIG. 11C show an exemplary effect of MTA1s expression on anchorage independent growth of ZR/pcDNA and ZR/MTA1s cells grown in 10% serum in the presence or absence of ICI 182780 (10^−9 M) or 4HT (10^−8 M) for 14 days. […] FIG. 11E illustrates that MTA1s may induce tumorigenesis of breast cancer cells. 5×10^6 cells were subcutaneously inoculated in the athymic nude mice (n=10), and tumor volumes at day 21 were recorded.
(§3) Soft agar colony growth assays were performed as described in Mazumdar et al., 2001, herein incorporated by reference. For xenografts studies, 5×10^6 cells were implanted subcutaneously into mammary fat-pad of nude mice and allowed to grow for 21 days and tumor size was measured, as described in Mandal et al., 2001, herein incorporated by reference.

ER [2] = experiment: GST pull-down assay; format: binding; conditions: in vitro translated protein, GST fusion
Description: Incubating equal amounts of GST […] GST-AF2 or GST-AF 1 proteins immobilized to glutathione-sepharose beads with in vitro translated ^35S-labelled MTA1s, protein as described.
Since MTA1s lacked the nuclear signal sequence, the subcellular localization and function of MTA1s was examined. […] The role of MTA1s, in breast cancer cells, was investigated by generating stable clones of ZR-75R cells expressing T7-MTA1s (FIG. 3B). Subcellular fractionation of the ZR-75R cells expressing MTA1s confirmed that T7-MTA1s was in the cytoplasm. To assess the purity of the fractions, immunoblotting with antibodies against the nuclear corepressor PELP1 (Vadlamudi, et al., 2000) and cytosolic paxillin (FIG. 3C) were used. To understand the impact of MTA1s on the status of ER, immunostaining with an anti-ER mAb were used on MCF-7 cells that were transfected with the T7-MTA1s. The expression of T7-MTA1s was accompanied by a significant reduction in the nuclear ER immunoreactivity (FIG. 3D), raising the possibility that MTA1s regulates ER. To confirm the interaction between the MTA1s and endogenous ER, immunoprecipitation of T7-MTA1s with an anti-T7 mAb was used. […] To investigate whether the association between MTA1s and ER was direct or mediated by other proteins, the ability of in vitro-translated ER protein to bind with GST-MTA1s was investigated. […]
Target sequence in this assay (P03372 311-595 limits assumed): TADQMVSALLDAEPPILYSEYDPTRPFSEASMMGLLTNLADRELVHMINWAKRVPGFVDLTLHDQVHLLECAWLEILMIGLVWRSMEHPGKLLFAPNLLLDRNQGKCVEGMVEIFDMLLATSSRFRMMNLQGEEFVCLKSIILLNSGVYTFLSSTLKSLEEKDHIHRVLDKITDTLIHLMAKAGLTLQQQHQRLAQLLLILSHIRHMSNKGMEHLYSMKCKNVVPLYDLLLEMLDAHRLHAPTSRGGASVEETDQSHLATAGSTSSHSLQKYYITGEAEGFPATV

[3] = system: glucocortocoid responsive element (GRE) transcription; experiment: GRE reporter assay, dexamethasone-stimulated, MCF-7 cells; format: cell-based, human; conditions: transient expression
Description: (§4) FIGS. 6A-6B. Typical transcriptional repression by MTA1s. FIG. 6A illustrates an example of repression of dexamethasone (10^−9 M)-mediated stimulation of GRE-CAT activity in MCF-7 cells by MTA1s. FIG. 6B illustrates the exemplary repression of progesterone (10^−9 M)-mediated stimulation of PRE-luciferase activity in MCF-7 cells by MTA1s. Cells were cotransfected with β-galactosidase to assess transfection efficiency, and normalized results are presented here.
as §1

ZR-75R or MCF-7 cells = experiment: Soft-agar anchorage-independent growth assay; format: cell-based, human; conditions: stable expression in ZR-75R or MCF-7 cells
Source text: as §2, §3

[4] = system: progesterone responsive element (PRE) transcription; experiment: PRE reporter assay, progesterone-stimulated, MCF-7 cells; format: cell-based, human; conditions: transient expression
Description: as §4, §1

[5] = system: pS2, c-Myc and cathepsin-D; experiment: Expression of ER-target genes in ZR-75R cells; format: cell-based, human; conditions: ZR-75R/MTA1s cells
Description: FIGS. 5A-5F. MTA1s may impair genomic responses and upregulates the MAP kinase pathway in ZR75R breast cancer cells. […] FIG. 5B illustrates an example of the status of E2 (10^−9 M for 16 h)-induced stimulation of pS2 mRNA. […] Treatment, 5 min. with E2 (10^−9 M) or ICI 182780 (10^−8 M) or both. […] Treatment, 5 min with E2 (10^−9 M) or ICI 182780 (10^−8 M) or both. Relative levels of p42/44Phos are shown underneath.

B1: full-length MTA1: 715 amino acid metastasis-associated protein, corepressor of nuclear Estrogen Receptor α (protein, UniProt Q13330 1-715, looked up)
chain: MAANMYRVGDYVYFENSSSNPYLIRRIEELNKTANGNVEAKVVCFYRRRDISSTLIALADKHATLSVCYKAGPGADNGEEGEIEEEMENPEMVDLPEKLKHQLRHRELFLSRQLESLPATHIRGKCSVTLLNETESLKSYLEREDFFFYSLVYDPQQKTLLADKGEIRVGNRYQADITDLLKEGEEDGRDQSRLETQVWEAHNPLTDKQIDQFLVVARSVGTFARALDCSSSVRQPSLHMSAAAASRDITLFHAMDTLHKNIYDISKAISALVPQGGPVLCRDEMEEWSASEANLFEEALEKYGKDFTDIQQDFLPWKSLTSIIEYYYMWKTTDRYVQQKRLKAAEAESKLKQVYIPNYNKPNPNQISVNNVKAGVVNGTGAPGQSPGAGRACESCYTTQSYQWYSWGPPNMQCRLCASCWTYWKKYGGLKMPTRLDGERPGPNRSNMSPHGLPARSSGSPKFAMKTRQAFYLHTTKLTRIARRLCREILRPWHAARHPYLPINSAAIKAECTARLPEASQSPLVLKQAVRKPLEAVLRYLETHPRPPKPDPVKSVSSVLSSLTPAKVAPVINNGSPTILGKRSYEQHNGVDGNMKKRLLMPSRGLANHGQARHMGPSRNLLLNGKSYPTKVRLIRGGSLPPVKRRRMNWIDAPDDVFYMATEETRKIRKLLSSSETKRAARRPYKPIALRQSQALPPRPPPPAPVNDEPIVIED
modifications: full-length
notes: 715 amino acid metastasis-associated protein, corepressor of nuclear Estrogen Receptor α
repression of estradiol's ability to stimulate ERE transcription (ER [1]): effectively blocked

B2: MTA1s-del: MTA1s mutant made by deleting the LRILL motif (protein)
chain: MAANMYRVGDYVYFENSSSNPYLIRRIEELNKTANGNVEAKVVCFYRRRDISSTLIALADKHATLSVCYKAGPGADNGEEGEIEEEMENPEMVDLPEKLKHQLRHRELFLSRQLESLPATHIRGKCSVTLLNETESLKSYLEREDFFFYSLVYDPQQKTLLADKGEIRVGNRYQADITDLLKEGEEDGRDQSRLETQVWEAHNPLTDKQIDQFLVVARSVGTFARALDCSSSVRQPSLHMSAAAASRDITLFHAMDTLHKNIYDISKAISALVPQGGPVLCRDEMEEWSASEANLFEEALEKYGKDFTDIQQDFLPWKSLTSIIEYYYMWKTTDRYVQQKRLKAAEAESKLKQVYIPNYNKPNPNQISVNNVKAGVVNGTGAPGQSPGAGRACESCYMSSDILEEIWWLENANPVRWREARTKPQ
cells with ERα present in the nucleus (ERα): more than 90% | repression of estradiol's ability to stimulate ERE transcription (ER [1]): did not result in a significant suppression

B3: MTA1s: novel 430 amino acid protein from an alternatively spliced MTA1 transcript, with unique 33 amino acid C-terminus (SEQ ID NO:2) (protein, listed as Homo sapiens)
chain: MAANMYRVGDYVYFENSSSNPYLIRRIEELNKTANGNVEAKVVCFYRRRDISSTLIALADKHATLSVCYKAGPGADNGEEGEIEEEMENPEMVDLPEKLKHQLRHRELFLSRQLESLPATHIRGKCSVTLLNETESLKSYLEREDFFFYSLVYDPQQKTLLADKGEIRVGNRYQADITDLLKEGEEDGRDQSRLETQVWEAHNPLTDKQIDQFLVVARSVGTFARALDCSSSVRQPSLHMSAAAASRDITLFHAMDTLHKNIYDISKAISALVPQGGPVLCRDEMEEWSASEANLFEEALEKYGKDFTDIQQDFLPWKSLTSIIEYYYMWKTTDRYVQQKRLKAAEAESKLKQVYIPNYNKPNPNQISVNNVKAGVVNGTGAPGQSPGAGRACESCYMSSLRILLDILEEIWWLENANPVRWREARTKPQ
tumorigenicity in nude mice (breast cancer cells): more tumorigenic | binding to ER in GST pull-down (ER [2]): interacted with the GST-ER but not with GST alone | repression of GRE transcription stimulated by dexamethasone [3]: blocked the stimulation | anchorage-independent growth in soft agar (ZR-75R or MCF-7 cells): significantly enhanced | repression of PRE transcription stimulated by progesterone [4]: blocked the stimulation | expression of ER-target genes pS2, c-Myc and cathepsin-D [5]: significantly reduced expression | repression of estradiol's ability to stimulate ERE transcription (ER [1]): effectively blocked

B4: MTA1s-stop: MTA1s mutant made by adding a stop codon and deleting the entire 33 amino acids (protein)
chain: MAANMYRVGDYVYFENSSSNPYLIRRIEELNKTANGNVEAKVVCFYRRRDISSTLIALADKHATLSVCYKAGPGADNGEEGEIEEEMENPEMVDLPEKLKHQLRHRELFLSRQLESLPATHIRGKCSVTLLNETESLKSYLEREDFFFYSLVYDPQQKTLLADKGEIRVGNRYQADITDLLKEGEEDGRDQSRLETQVWEAHNPLTDKQIDQFLVVARSVGTFARALDCSSSVRQPSLHMSAAAASRDITLFHAMDTLHKNIYDISKAISALVPQGGPVLCRDEMEEWSASEANLFEEALEKYGKDFTDIQQDFLPWKSLTSIIEYYYMWKTTDRYVQQKRLKAAEAESKLKQVYIPNYNKPNPNQISVNNVKAGVVNGTGAPGQSPGAGRACESCY
repression of estradiol's ability to stimulate ERE transcription (ER [1]): did not result in a significant suppression
